Measurements: IntAct's records for PubMed 15930137

B1: E3 ubiquitin-protein ligase NHLRC1 (Homo sapiens), Q6VVB1 (parent)
chain: MAAEASESGPALHELMREAEISLLECKVCFEKFGHRQQRRPRNLSCGHVVCLACVAALAHPRTLALECPFCRRACRGCDTSDCLPVLHLIELLGSALRQSPAAHRAAPSAPGALTCHHTFGGWGTLVNPTGLALCPKTGRVVVVHDGRRRVKIFDSGGGCAHQFGEKGDAAQDIRYPVDVTITNDCHVVVTDAGDRSIKVFDFFGQIKLVIGGQFSLPWGVETTPQNGIVVTDAEAGSLHLLDVDFAEGVLRRTERLQAHLCNPRGVAVSWLTGAIAVLEHPLALGTGVCSTRVKVFSSSMQLVGQVDTFGLSLYFPSKITASAVTFDHQGNVIVADTSGPAILCLGKPEEFPVPKPMVTHGLSHPVALTFTKENSLLVLDTASHSIKVYKVDWG
partner: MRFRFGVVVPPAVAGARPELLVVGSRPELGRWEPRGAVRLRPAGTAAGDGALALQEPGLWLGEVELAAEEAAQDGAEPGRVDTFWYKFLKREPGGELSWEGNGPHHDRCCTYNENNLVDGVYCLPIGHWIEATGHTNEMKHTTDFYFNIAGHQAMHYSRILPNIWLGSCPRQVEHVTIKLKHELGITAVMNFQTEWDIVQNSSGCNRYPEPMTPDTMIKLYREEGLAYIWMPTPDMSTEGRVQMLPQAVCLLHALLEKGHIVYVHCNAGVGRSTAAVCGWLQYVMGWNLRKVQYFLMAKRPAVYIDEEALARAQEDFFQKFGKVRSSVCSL

Variants of: B1
Conditions: with epm2a_human EPM2A

| effect of a mutation on the interaction | Variant |
| --- | --- |
| decreasing interaction | E280K |
| decreasing interaction | Q302P |

Continued, variant first:

| Variant | effect of a mutation on the interaction |
| --- | --- |
| F33S | decreasing interaction |
| C26S | decreasing interaction |

Variants of: B1
Conditions: with epm2a_human EPM2A
Remark: another data set of the same source

| effect of a mutation on the interaction | Variant |
| --- | --- |
| disrupting interaction | E280K |
| disrupting interaction | Q302P |
